# In paper PMC11718114:
# Changes are numbered by the printed parent chain. Numbers in names are those of the source.
# B1: RRAS2 (wild type), P62070 F75A (protein)
# chain: MAAAGWRDGSGQEKYRLVVVGGGGVGKSALTIQFIQSYFVTDYDPTIEDSYTKQCVIDDRAARLDILDTAGQEEAGAMREQYMRTGEGFLLVFSVTDRGSFEEIYKFQRQILRVKDRDEFPMILIGNKADLDHQRQVTQEEGQQLARQLKVTYMEASAKIRMNVDQAFHELVRVIRKFQ
# B2: RRAS2 (wild type), P62070 M78A (protein)
# chain: B1 chain with A75F, M78A
# B3: RRAS2 (wild type), P62070 E74A (protein)
# chain: B1 chain with E74A, A75F
# Target: PI3Kα-RBD (PIK3CA-RBD(157-289)), P42336
# Test: ITC
# Details: chain shown with the change;; parent: est. 8.0 µM; read off a plot
row,Kd [µM],Binder
1,21,B1
2,130,B2
3,12,B3
